Where a chain is given by its changes, count along the chain named.
B1: 5p-182 (VHH)
VHH: EVQLVESGGGLVQTGGSLRLSCALSGYTFSIFPTAWFRQAPGKEREFVAGIRWNGSTRDYTEYADFVKGRFTISRDNAKNMVYLQMISLKPEDTALYYCAASDGVIDGTNANAYRYWGQGTQVTVSS
notes: class I psNb
B2: 5p-35 (VHH)
VHH: HVQLVESGGGLVQAGGSLRLSCAASGRTFSRYAAGWFRQAPGKEREFVAVIEWDGDSAYYADPVKGRFTISRDNAKNTVYLQMNRLKPEDTAVYICAVGGNHYSRSKYYNLDEYDDWGQGTQVTVSS
notes: class II(B) psNb
B3: 4P-4 (VHH)
VHH: DVQLVESGGGLVQAGDSLRLSCAASGRTFGNYVLDWFRQAPGKEREFVASITQTGFGTYYADAVKGRFTISRDNAKNTMYLQMNSLKPEDTAVYYCAADFTAQNRGIRIPRYWGQGTQVTVSS
B4: 4P-5 (VHH)
VHH: B3 VHH with D16G, A102V, R105G, I109N, R111T
B5: 4P-10 (VHH)
VHH: HVQLVESGGGLVQAGDSLRLSCTASGRTFSAYGMGWFRQAPGKEREFVAGIARSGSEYYGDSVKGRFTISRDNAKNTVYLQMASLKAEDTGVYYCAADPTILYHAISQRTQNYRYWGPGTQVTVSS
B6: 4P-9 (VHH)
VHH: B5 VHH with H1Q, Y115H
B7: 5p-24 (VHH)
VHH: DVQLVESGGGLVQAGDSLRLSCTASGLTFSAYGMGWFRQAPGKEREFVAGIARSGSEFYGDSVKGRFTISRDNAKNTVYLQVNSLRPEDTALYYCAADRTILYHAISQRTQNYQYWGPGTQVTVSS
B8: 5p-10 (VHH)
VHH: QVQLVESGGGLVQAGGSLRLSCAASGRTFSSSAMGWFRQAPGKDREFVAAISPSSTNTGYTDSVKGRFTISRDNTKNTVDLQMNNLKPEDTAIYYCAADANSLRYGYSQNQGRYEYWGQGTQVTVSS
B9: 5p-16 (VHH)
VHH: DVQLVESGGGLVQAGGSLRLSCLASGRTFSNYAMAWFRQSPGKEREFVAVITSGRSTDYADSVKGRFTISRDNAKNTVYLQMNSLKPEDTAVYYCAADQAPLRFSYSLSRDKYDYWGQGTQVTVSS
B10: 4P-12 (VHH)
VHH: B9 VHH with L23A, N31S, A33T, A35G, S40A, T52S, K112E
B11: 5p-17 (VHH)
VHH: B9 VHH with D1Q, L20V, L23A, T28S, N31D, A100T
B12: 4P-17 (VHH)
VHH: HVQLVESGGGLVQAGASLRLSCAASGRTASNYVMGWFRQAAGKEREFVAHISWSGDETNYADSVRGRFIISRDNAENTVYLQMNSLKPEDTAVYYCAADRGYSLMYYSSREYTYWGQGTQVTVSS
B13: 4P-19 (VHH)
VHH: HVQLVESGGGLVQAGGSLRLSCAASGRTVSSEFMGWFRQAPGKEREFVAAITWDGGSTYYTDSVKGRFTISRDNAKNTVYLQMNSLKPEDTAVYYCAADRSIFQSYYSAKYPNNYEYWGQGTQVTVSS
B14: 4P-21 (VHH)
VHH: HVQLVESGGGLAQAGGNLRLSCAASGGTFSDYAMGWFRRPPGKEREFVAAISRGGSTFYADSVKGRFTISRDNAKNTVYLQMTSLKPEDTAVYYCAADRSPLFFGVPRSHGEYDYWGQGTQVTVSS
B15: 4P-26 (VHH)
VHH: QVQLVESGGGLVQAGGSLRLSCAASGDTLRSYNMGWFRQAPGKEREFVAVISWTGVGTYYGDSVKGRFTISRDVIKNTLYLQMDSLKPEDTAIYYCAADSTTYRLHSAGSDYLYWGQGTQVTVSS
B16: 4P-28 (VHH)
VHH: QVQLVESGGGLVQAGGSLRLSCAASGRTFSHYPTGWFRQAPGKEREFVSTISESGTSTYYADSVKGRFTISRDNAKNSVYLQMNSLKPEDTALYYCAADTAGRTQYGSSWSTLDGFVYWGQGTQVTVSS
B17: 4P-32 (VHH)
VHH: DVQLVESGGGLVQAGGSLRLTCAASGRTFSSDTMDMGWFRQAPGKERQFVAADAWNDGRTYYADSVKGRFTISRDNAKNTLYLQMNSLKPEDTAVYYCAADTYSNYEKDYSWGYWGQGTQVTVSS
B18: 4P-56 (VHH)
VHH: QVQLVESGGGLVQAGGSLRLSCAASGRTDSISDMGWFRQAPGKEREFVAVVGWSGGGTDYAHSVKGRFTISRDNAKNTVYLQMNSLKPEDTAVYYCAVGSLRVGSFSVEYWGQGTQVTVSS
notes: class IV psNb
B19: 4P-61 (VHH)
VHH: QVQLVESGGGLVQAGGSLRLSCAASGSTFNTRNIAWYRQAPGKQRELVAGITNAGATIYADSVKGRFTISRDNAKNTMYLQIDSLKPEDTAVYYCNRIVGTYPWGQGTQVTVSS
B20: 4P-74 (VHH)
VHH: HVQLVESGGGLVQAGGSLRLSCATSGRTFSTYRMSWFRQAPGKEREFVATIIWSVGSTHYADSVKGRFTISRDNAKNMVYLQMNSLKPEDTAVYYCAAQRSDSSSWGYEDDYDYWGQGTQVTVSS
B21: 4P-76 (VHH)
VHH: EVQLVESGGGLVQAGDSLRLSCAASERTGINYAMGWFRQAPGKERDFVAAIGWNGSITKYAESVKGRFTLSRDDAMNTVSLQMNSLKPEDTAVYYCAARIGSIANLQYREYEFAYWGQGTQVTVSS
B22: 4P-85 (VHH)
VHH: QVQLVESGGGLVQAGGSLRLSCAVSGRTVSTYGMAWFRQTPGKKERDFVATITRSEGTTFYADSVKGRFTISRDNAKNTVYLQMNSLKIEDTAVYYCAVRRDSSWGYSRDLFEYDDWGQGTQVTVSS
B23: 4P-89 (VHH)
VHH: HVQLVESGGGLVQAGGSLRLSCAASGRTLTTYSMAWFRQAPGKEREVVAAITPTGFGTYYADFVKGRFTISRNSAKNTVYLQMDSLKPEDTAVYYCAARSEIIIASPTGGEYDYWGQGTQVTVSS
B24: R113 (VHH)
VHH: HVQLVESGGGLVQPGGSLRLSCAASGRSFNSYLMGWFRQAPGKEREFVAWISGSPHDIIRYRDSVKDRFTISRDNAKNTVYLQMNSLKPVDTAVYYCAVGSLRVGSFSPDYWGQGTQVTVSS
B25: R37 (VHH)
VHH: QVQLVESGGGLVQTGGSLRLSCAASGRTFSNYVMGWFRQAPGKEREFVSSIEWNSENTFYANSVKGRFTISRDNAKNTVYLQMNSLKAEDTAVYYCAADRGSSYYYTRASEYTYWGQGTQVTVSS
B26: R117 (VHH)
VHH: HVQLVESGGGLVQAGGSLRLSCAAPGRTFSTSAMGWFRQAPGKEREFVAAIDWSNTNIHYADTVKGRFTISTDTAKNTVYLQMNNLKPEDTAVYYCAQGGWGLTQPISVDYWGKGTQVTVSS
B27: R58 (VHH)
VHH: QVQLVESGGGLVQAGGSLRLSCAASGRDFSSTVMGWFRQAPGKERELVAWMTVTYDITYYADSVKGRFTISKDNAKNTVYLQANSLKPDDTAVYYCASGALRVGSFSPDYWGQGTQVTVSS
B28: 5p-15 (VHH)
VHH: QVQLVESGGGLVQPGDSLRLACAASGGTFGYYALGWFRQAPGKEREFVGSITQTGFGTKYADAVKGRFTISRDNAKNTMYLQMNSLKPEDTAVYYCAADPTAQNMGIRDPPYWGQGTQVTVSS
B29: 5p-18 (VHH)
VHH: EVQLVESGGGLVQAGGSLRLSCEASGRTFSSYAMGWFRQAPGKEREFVAAISQGGSTDYGDSTKGRFTISRDNAKNTVYLQMNSLKPEDTAVYYCAADQTPLRYAYSTRSQDYDYWGQGTQVTVSS
B30: 5p-20 (VHH)
VHH: HVQLVESGGGLVQAGGSLRLSCAASGGTFSAYAMGWFRQVPGKEREFVAGIARSGSDYYGDSVKGRFIISRDNTKNTVYLQMNSLKAEDTGVYYCAADRAILYHGLSQRTQAYAYWGPGTQVTVSS
B31: 5p-23 (VHH)
VHH: HVQLVESGGGLVQAGDSLRLSCAASGGTFSSYAMGWFRQVPGKEREFVAAISRGGSTDYADSVKGRFTISRDNAKNTVNLQMNSLKPEDTAVYYCAADRSPLFWGMSQSHGEYDYWGQGTQVTVSS

target: RBDSARS-CoV-2 (SARS-CoV-2 S protein residues 319-539, C-terminal His-tag) (SARS-CoV-2, UniProt P0DTC2 319-539); experiment: ELISA

Binder | IC50 [nM]
B1 | < 10
B2 | < 10
B3 | 10 to 100
B4 | 10 to 100
B5 | < 10
B6 | < 10
B7 | < 10
B8 | < 10
B9 | < 10
B10 | < 10
B11 | < 10
B12 | < 10
B13 | < 10
B14 | < 10
B15 | < 10
B16 | 10 to 100

Binder | IC50 [nM]
B17 | < 10
B18 | < 10
B19 | < 10
B20 | < 10
B21 | 10 to 100
B22 | < 10
B23 | < 10
B24 | < 10
B25 | < 10
B26 | < 10
B27 | 10 to 100
B28 | 10 to 100
B29 | < 10
B30 | < 10
B31 | < 10

target: RBDSARS-CoV (SARS-CoV S protein residues 318-510, C-terminal His-tag) (SARS-CoV, UniProt P59594 318-510); experiment: ELISA

Binder | IC50 [nM]
B1 | 1000 to 8000
B2 | < 10
B3 | 100 to 1000
B4 | 100 to 1000
B5 | 100 to 1000
B6 | 100 to 1000
B7 | < 10
B8 | 10 to 100
B9 | 10 to 100
B10 | 10 to 100
B11 | < 10
B12 | 1000 to 8000
B13 | 100 to 1000
B14 | < 10
B15 | > 8000
B16 | 1000 to 8000

Binder | IC50 [nM]
B17 | 1000 to 8000
B18 | 10 to 100
B19 | 10 to 100
B20 | > 8000
B21 | 1000 to 8000
B22 | < 10
B23 | 10 to 100
B24 | 10 to 100
B25 | < 10
B26 | 100 to 1000
B27 | 1000 to 8000
B28 | 10 to 100
B29 | < 10
B30 | 100 to 1000
B31 | 10 to 100

target: spike of SARS-CoV-2 Munich strain (authentic virus) (SARS-CoV-2); experiment: cell-based or functional assay

Binder | PRNT SARS-CoV-2 Munich IC50 [nM]
B1 | 0.35
B2 | 42.2
